Measured values from article PMC4608358.
Values joined by “and” are separate entries in the source; they are usually repeats but may differ in a detail not shown here. Equal values may be shown once.

Assays:
[1] = biological target: wildtype hamster BiP, N-terminally hexahistidine-tagged (hamster) (UniProt G3I8R9); assay: SEC-MALS; wildtype BiP 90 µM, Superdex 200 Increase 10/300 in HKM, room temperature
[2] = biological target: wildtype hamster BiP, N-terminally hexahistidine-tagged (hamster) (UniProt G3I8R9); assay: native gel or EMSA; purified BiP diluted to a series of concentrations, equilibrated 48 hr at room temperature, native-PAGE immunoblot; share of species II and III against concentration; crude estimate

Sequence of wildtype hamster BiP, N-terminally hexahistidine-tagged, G3I8R9 19-654 (natural protein; other documents disagree on this pair) (G3I8R9 19-654): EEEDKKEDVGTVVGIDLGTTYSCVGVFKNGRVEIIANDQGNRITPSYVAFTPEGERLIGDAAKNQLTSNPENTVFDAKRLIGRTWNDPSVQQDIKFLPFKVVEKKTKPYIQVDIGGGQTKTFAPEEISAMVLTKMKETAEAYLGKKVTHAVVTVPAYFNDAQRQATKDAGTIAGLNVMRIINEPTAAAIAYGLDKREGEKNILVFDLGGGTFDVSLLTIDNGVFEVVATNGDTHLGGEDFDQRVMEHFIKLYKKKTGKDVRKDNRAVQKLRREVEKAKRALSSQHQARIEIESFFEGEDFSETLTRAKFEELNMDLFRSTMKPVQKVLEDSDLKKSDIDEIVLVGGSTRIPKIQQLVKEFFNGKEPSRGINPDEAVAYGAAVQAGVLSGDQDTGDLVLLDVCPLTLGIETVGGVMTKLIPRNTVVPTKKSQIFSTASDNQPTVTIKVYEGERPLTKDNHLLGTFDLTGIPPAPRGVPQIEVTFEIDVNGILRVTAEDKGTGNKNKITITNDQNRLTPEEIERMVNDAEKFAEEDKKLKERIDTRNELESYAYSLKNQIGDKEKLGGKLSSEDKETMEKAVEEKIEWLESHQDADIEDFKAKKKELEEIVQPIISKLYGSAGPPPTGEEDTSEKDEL

stoichiometry N [1]: 2 and 3 | K (1/2max)^II (concentration of BiP at which half of species II dissociated) [2]: 0.45 µM | K (1/2max)^III (concentration of BiP at which half of species III dissociated) [2]: 0.74 µM
Substance: wildtype hamster BiP, N-terminally hexahistidine-tagged, G3I8R9 19-654 (natural protein; other documents disagree on this pair)
